A short description of the data set: soluble on expression in E. coli; label from the status in PepcDB or PDB records.
For “MVNFFRLNLSSNQAAAVTVSETAELPEALEQLGLSNSRPVLVIVGGASQTSEADFLRIQSLFVEVLAPIAQSLGAYVVDGGTDAGVMRLMGDARSQINGQFPLIGVAPTAKVILPNQTTILADDATPLEPHHSHFVLIPGSKWGDESPWIVKVATLLANGLPSITVLINGGEISFIDALNSVIAGRLVIVIAGSGRTADKIASALRGYATDERATELAASDHIQTIDLEAAPEELIDTMTNLLLNLEHHHHHH”, the “soluble on expression in E. coli” value is “not soluble”. Consider “MVNKEHFSKKFDADLEEIRTRVLQMGGLVEEQIKNAIEALTEGNEHMIEQVIDNDHRVNAMEVKIDELCSQIIVRRQPTAIDLRMIMTVINTITDLERIGDEAAKIARMAKLIYAADRMYTPRFVEIRHIAAIAMDMLRKALDAFARVDPNASAEIVRQDEQVDEEFRSIIRHLVTFMMEDPRKISTAIEILFAAKAVERIGDHAKNMSEYVVYMVKGKDVRHVSADEIEREVGK”, for which the “soluble on expression in E. coli” value was “not soluble”. To “MVNSDIREQLRPFFEPKAVAIIGATNKKGKVGNVIFENFKKNKEKGIFKGNIYPVNPKLDEIEGYKVYHDVSELPDDTDLAVIAIPAPAVPETMRKIGEKGIKSVIIITGGFGELGEEGKRMEQEILEIARANGIRVIGPNCVGVYVPDTGVDTVFLPDEKMDRPPSGPIAFISQSGAFAAAMLDWAAMAGIGIGKMVSYGNKIDVDDADLMEYFAHDDEIKVMTFYIEGVKDGRKFMETAKRVTKIKPIIALKSGRTEYGAKAASSHTGSLAGQDVIYDAVFKQTGIIRAEDFEHMFDLAKAFAKCKLPKGDRIGIITDGGGAGVMASDAVAKFGLKLAELSEETIKFLRERFPPHAVVGNPTDVVGDTDAERYRLALEAFTKDPNVDAILLIVLFQVPLLDEEEVINIITDYAKKSDKPIVVVSMGGYKTDKYARMLEERGIPVYPTPERGVRALAGLVRYAKYIRGNGE” belongs “soluble”. Consider “MVPPNDEIEDGFYLIDDSNHDEDLDFSDFPWLDPDHPLFFPATQANNSKGSTRWDAVNKFSVENWYPHLRKHTFKSHFITLNYNDIHYLMGNIPPDYDSSKLESIFNKILSEFNNKEVFMRLSTRSPKDSKFLFEEASTIMSKDFVYWNENDNKHQQLVSFVASMLKAMKIKSGRKIIETIAQSPRVYNDLLALVSSSNQSDCTTNVILREWHDIRPDHEFRVFVSRRHRKESIVTAISQYFHFLYFDKSPADCFNFLDEEDKKAVIKKFENYVLKSVDPDVAKFLNFSSEQDDDESSDCIREYIVDLALIPVSQYHGEITDENIIEIGANTYVMVVIELNPFAPAATGSGLFNWKNDLEHHHHHH”, for which the “soluble on expression in E. coli” value is given as “soluble”. To “MVPSFPFQRLPNKPFQNVLKSMSVGNLLSYSMCSEASKSHVTNLKVKINSFEINVTENVHLFVKSEHGPTFNFRTVTSANGNISDDVTPANENEKHRWYKKGFELRNWIEHFLSVLNHSKIDKLNFISQQGERSKNDYLRDSLEGFKVDCFTVQQCSESYQRSIFRNFSPINTFIICATGAESTKAISSALPHNLKDFGYVSRGATWNFSLDNLLLSNSRNLVVIEARFSFPDINMFLKHWLNGSNRRLTNAYFIYTTPLVSEDISKGLPFSIPSEAEISKLPSDLMEHRETMFQLKRKFDSTATIVLKQNNGKHVFNMFVEHF” belongs “not soluble”. Take “MVPTTPFTIENTPVGRGNSGARSHKEPSAKRKKPTSTPTVRCGTVPQEPSTSAATVTQKPAGSTMATANITETRRIDISSCSDRPLIPCTASGVPLTTFSNKSLDSILNQDSEIVGGISQKDLNELRNRGPNMTVKQLLAKNFKNYKVRQSLTSELATEFVNRTLSENDVPMGALIMPPMEDVQESIVKESKTYNYAAASGGSLPFSNPHSEGILIRSPAIKGPHTLRDVLDSLGSVGTPAANQTLKDVLGSFNSQQPIDPTPSKTLKDVLGSLDLDNDYDLKLKMEGLDHDLKVESPTDAELGLDEFANQILSSKYKGTSLDTDHTAYPGNHLPWPVLWKNPVPKYIQGEIYCYVDGCTYSPMSEIIKSGKFMVPLDHPVEFIFKDRPILVTMEELLTANGINMSKAQHYRMLQGLLQKSGVHIRADYAERLHEFQALMDGLEIEDKPRPALKLSSDKLPLMCIYPDIYMNALGRRIHGAVIVDSSGVQETIGTRTLITRHQIAEFLLENPESPDSPDITTAPSKNSTIGDMMRPKSKIRRTHYVDLNKMVWRHFKDCQAAGIQINGKQLKDQAMRYAKDMGLESFRGSEGWLDAFKRRHRIDLKSMTGYPVCYENDMYEEVDKECRELDMESHMLHQQPPSFFPQSAPDEFAASFFSSLSGFPQQMVVQEPPTTSSSNHLQNMINSMMTPPVVDSRMMPSTSSAGASGASASSQEPDGGGDTIFNVMRSCQIKVADKEVSHALDTLRTYILEHDPAAMSLLVPLQERLATTSSGAIGRDMPSTSSSS”: the “soluble on expression in E. coli” value is “soluble”. The value for “MVPVRLPLFGPSRAEGPMGPLPLRRKALGILYYLALEGPTRRERLADLLWGHRVALQNLRSELTHLRSFFGKEAFRGPVLTLPPGVELDRTPGSGEAMEGLEDLSPAFADWVYGWRTRLAPGEEGTPFPKRLEAVRPPALVILIGPPGSGQESLAQALAQKLGLPLRHGLGEGAGVFYLSEPFPPKEVGLALKPLPGRVLVVARSSFGEDPSFLLALRTRFPAEVTVVEQVPCLSWREAVGGPLRHLPFAEAARFYLRSGGRVEVLRELLAMGNPEALPQRVRAMVALEARHLPWEARKALEVLALHPGPFPEKLAWILGYGEALDELEHRGWLLYCEGRYRFSEPQFRPYLTAGFGEGERCRLHARLAEAWEALGDPVAAAYHRFYGEKGEALKAAQLGSWRQALAAHPGPNVPLPRSRVRKGKKRALETEEIHLVSFQGEVAEAVLELEEPLLLHLQGEVYQELPLGLGANLEAFPFRLRSLKGEGAVYFLPRANPGYYPWGAVLPQENLDHEFLLRPGQYLLELGTPGVVSLRLQAWETAPGNQEILVPLEMTESL” was “soluble”; that for “MVQESIISSFRGKLENDPSKSTSLATVETLLEVLDRSRATTVAEFQNELNQVVAALEKTDYSSTSIRSAADLFTRFTSLAPAALLDQEDFSQVLDLYRQRARSFIKNVRGSRAKISKCARLFFTHHMNILTHSYSKVVLETILDAHKSGYHLHVWVTESQPDASGKLVFEELKKNGVPTTLVLDSCVGYVMERIQAVLVGAEGVMETGGIINKIGTVNVCIIAKSRHVPVYVCAETIKFVREFPLNQADIPQEFKYRTSVIERNNLELEHPDVDYTAPEFLTLIITDVGAMKPEAVGEELIKMYI” was “not soluble”. The value for “MVRKQKRARLIYNPTSGQEIMKKNVAEVLDILESFGYETSAFQTTPRADSAKNEAARASQAGFDLVIAAGGDGTINEVVSGIAPLKRRPKVAIIPTGTTNDFARALKIPRGNPVEATKLIGKNQTIHMDIGRAYNDKYFINIAAAGSLTELTYSVPSQLKTMFGYLAYLVKGAELLPRVRNVPVKVFYDHGVFEGEASMIFVALTNSVGGFETIAPDAKLDDGKFTLILVKTANLFELTDLIRLVLTGGRHINHKKIEYIKTSYLKIIPQGNPPKRMMINLDGEYGGDAPIELRNLKNHIEFFANTDEISDDAITLDTEELVLEAIAQKFAREAESLDEMDKTKEQD” was “soluble”; that for “MVRSMLYATDLGLYAPYVMQHALALARTFDAGLYVVHVVEPMGLFAESVLQSYLGEEALQELHGKGAHAFMEGIEQRMLDGFREELGEGHSDLSLIRTVRVVQGEPASVIIEQAHKLEVDLLVLGRHSASAQEGASIGRTAARILQSSGVPVYMVPIMSKALCQKGC” was “not soluble”; that for “MVRVKRSQLREGCVLAEDVLGKTKRPIIPKNTVITKPLLLVLEKFLVEEVDVEPLLANGEPFPNVDSASTAAAKQPMAFYLEAVQRYKTWFQSWQAGLPVDIGEIRGVIISLFERMAGQKRELLMLHHYATKDEYLHHHAVSVGLLAGFLAMQLGYSEGECHQIALAGVLADCGMAKVSKRILTNPSALTEAEFNEVKQHPVFSYRMVQKIPALNHGAKLAVLQHHERNDGSGYPLGVKAERIHPYSQIVAVADVYHAMTSERLYRRKQSPFRAIETMQREQFGKLSTEAVAALVNNLIGLQTGAVVKLSNGEMAEVMFIPSDEPARPIVKIIETGQLLSLSVQRDIYIEEMVQG” was “not soluble”. For the sequence “MVRYFGFLANRVCGEKLPQVYRALGMDKPEPVAKVCYAQMVKQFLSRDPFECVLCGGRMVYRRAIAGLNVEGLKKNARDISLLRYMPA”, the “soluble on expression in E. coli” value is reported as “not soluble”. To “MVSDAAERNLAFALSELDRITAQLKLPRHVEEEAARLYREAVRKGLIRGRSIESVMAACVYAACRLLKVPRTLDEIADIARVDKKEIGRSYRFIARNLNLTPKKLFVKPTDYVNKFADELGLSEKVRRRAIEILDEAYKRGLTSGKSPAGLVAAALYIASLLEGEKRTQREVAEVARVTEVTVRNRYKELVEKLKIKVPIA” belongs “soluble”. To “MVSEIVVDVGINEKRVALLEDRELVELFIERNDCERLVGNIYRGRVESVLPGMQAAFIDIGYEKNAFLYVGDAIPQKEFSEDDEEIYSDVKSYNIEEILRPGQEITVQVTKEPIGTKGPRVTTHITLPGRQMVLLPNADYIGISRRIEDEEERAKLRKIAEKIKPKNMGIIVRTVSEGKREEDFKSDLNFLVKLWAKIKQREQSGPVPRCLHKDLSVIYRAVRDIFTWNIDRFVINDRQEYNKVLELVEMISPALKMRVEYFNKNIDLFEYYQIDSMIQKALAKKVWLKCGGYIVIERTEALTVIDVNTGKYVGVNNLEDTVLRTNLDAVKEIGKQLRLRDIGGIIIIDFIDMHDPEHQKQVLEALKQVLKKDRTKTTVVGMTGLGLIEMTRKKVREGLESMMLQDCPYCEGRGKILSPESVARNVEKEISKYFTKTIANAIMVEVHPTVAEVLRGEDNDNLARIQNLFNKKVIIKPSAEVGHEEVKGSCKIKCRNI” belongs “not soluble”; to “MVSIKEHLEELLESFDYSGDVEERIRLLRAAIGRIGNMFYGTENEEIYADQVRRIKLRLRELRETYATSEDNWRELMDNLEELRDQIERLAIRGGIIEK”, “not soluble”; to “MVSKAINSAMNQVDGIVVVGSPGRNLEIEDEKVTFIQSQISDVGKRYFIGLEKIDADYYFLLDYDDIFLSNKVNALKRVFENGKGGAAKESEYYNPSLNYISNVIRNRIDWHISEYSFDADFKKYLLKFVEKYSIPTHVSFDKILFAIMLNYGNMHVVNSKLTEIVSHGDSRMHAKRKRKFYSETYKVFEKFKSIPDLNQSCRQYVEYTYDLNRYLSEPTRENYEHLLASGKYPIPLYKRLYYKYYSIMKPE”, “not soluble”. To “MVSLEKNDHLMLARQLPLKSVALILAGGRGTRLKDLTNKRAKPAVHFGGKFRIIDFALSNCINSGIRRMGVITQYQSHTLVQHIQRGWSFFNEEMNEFVDLLPAQQRMKGENWYRGTADAVTQNLDIIRRYKAEYVVILAGDHIYKQDYSRMLIDHVEKGARCTVACMPVPIEEASAFGVMAVDENDKIIEFVEKPANPPSMPNDPSKSLASMGIYVFDADYLYELLEEDDRDENSSHDFGKDLIPKITEAGLAYAHPFPLSCVQSDPDAEPYWRDVGTLEAYWKANLDLASVVPELDMYDRNWPIRTYNESLPPAKFVQDRSGSHGMTLNSLVSGGCVISGSVVVQSVLFSRVRVNSFCNIDSAVLLPEVWVGRSCRLRRCVIDRACVIPEGMVIGENAEEDARRFYRSEEGIVLVTREMLRKLGHKQER” belongs “not soluble”; to “MVTHSKFPAAGMSRPLDTSLRLKTFSSKSEYQLVVNAVRKLQESGFYWSAVTGGEANLLLSAEPAGTFLIRDSSDQRHFFTLSVKTQSGTKNLRIQCEGGSFSLQSDPRSTQPVPRFDCVLKLVHHYMPPPGTPSFSLPPTEPSSEVPEQPPAQALPGSTPKRAYYIYSGGEKIPLVLSRPLSSNVATLQHLCRKTVNGHLDSYEKVTQLPGPIREFLDQYDAPL”, “soluble”.
